Data published in article PMC5986207, “Structural insights into the mechanism of action of a biparatopic anti-HER2 antibody” (The Journal of Biological Chemistry, 2018).

Molecular target: T1, human HER2 extracellular domain, soluble, His-tagged (Homo sapiens)
T1 construct: human HER2 (ERBB2) extracellular domain, subdomains I-IV; the electron density covers amino acids 1 to 575, leaving the last 55 residues invisible; About 86 kDa, of which 17 kDa glycan; The purified His-tagged HER2 (crystals, AUC); also called HER2 ecd; soluble HER2; source: HEK293F; purified (IMAC, Superdex200) for crystals; cell culture supernatant for SPR
Experiment: AUC; multisignal sedimentation velocity (MSSV), 4:1 molar loading of HER2 to antibody (5.8:1.4 μM), PBS, 20 °C, 42,000 rpm, UV 280 and 250 nm and interference, SEDPHAT
Conditions: both partners purified

- stoichiometry N: 2 HER2 per 39S mAb
B1: anti-HER2 fully human mAb 39S (IgG1κ) (antibody, V domains shown)
VH: EVQLVESGGGLVKPGGSLRLSCAASGFTFSSYSMSWVRQAPGKGLEWVSSISSSSSYIYYADSVKGRFTISRDNAKNSLYLQMNSLRAEDTAVYYCARGGDAYNYYYFDYWGQGTLVTVSS
VL: DIVMTQTPLSLSVTPGQPASISCKSSQSVFFRSNNKNILAWYLQKPGQPPQLLIYWASSRESGVPDRFSGSGSGTDFTLKISRVEAEDVGVYYCQQYFGSPFTFGPGTKVDIK
notes: variable domain of the 39S heavy chain; as in the heavy chain of m1 (PDB 6ATT); human IgG1 heavy chain constant region (its CH1 is also in the heavy chain of PDB 6ATT); whole kappa light chain of 39S; as the light chain of m1 (PDB 6ATT); IgG1 kappa, about 148 kDa; also called 39S mAb; Antibody 39S
